According to publication PMC10397247:

Legend:
P6A-bS = molecular target: T1, P6A-bS; experiment: two-hybrid library CCNG1;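 also: natural log of median RNA to DNA barcode read ratio; higher means stronger binding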
T1 chain: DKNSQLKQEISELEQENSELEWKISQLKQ

P9A-bS = molecular target: T2, P9A-bS; experiment: two-hybrid library CCNG1;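 also: natural log of median RNA to DNA barcode read ratio; higher means stronger binding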
T2 chain: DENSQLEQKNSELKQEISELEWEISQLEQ

P4A-bS = molecular target: T3, P4A-bS; experiment: two-hybrid library CCNG1;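 also: natural log of median RNA to DNA barcode read ratio; higher means stronger binding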
T3 chain: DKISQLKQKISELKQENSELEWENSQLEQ

P8A-bS = molecular target: T4, P8A-bS; experiment: two-hybrid library CCNG1;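 also: natural log of median RNA to DNA barcode read ratio; higher means stronger binding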
T4 chain: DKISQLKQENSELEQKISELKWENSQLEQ

P5A-bS = molecular target: T5, P5A-bS; experiment: two-hybrid library CCNG1;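 also: natural log of median RNA to DNA barcode read ratio; higher means stronger binding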
T5 chain: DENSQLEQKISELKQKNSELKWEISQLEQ

P7A-bS = molecular target: T6, P7A-bS; experiment: two-hybrid library CCNG1;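 also: natural log of median RNA to DNA barcode read ratio; higher means stronger binding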
T6 chain: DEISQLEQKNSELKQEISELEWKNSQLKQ

APC4436-AA = molecular target: T7, APC4436-AA; experiment: two-hybrid library CCmax; conditions: mean of both orientations
T7 chain: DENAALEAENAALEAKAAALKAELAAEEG

APC8910-AA = molecular target: T8, APC8910-AA; experiment: two-hybrid library CCmax; conditions: mean of both orientations
T8 chain: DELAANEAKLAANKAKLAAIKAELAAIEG

APC5383-AA = molecular target: T9, APC5383-AA; experiment: two-hybrid library CCmax; conditions: mean of both orientations
T9 chain: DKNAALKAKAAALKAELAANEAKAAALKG

APC2405-AA = molecular target: T10, APC2405-AA; experiment: two-hybrid library CCmax; conditions: mean of both orientations
T10 chain: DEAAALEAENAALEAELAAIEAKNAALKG

APC8191-AA = molecular target: T11, APC8191-AA; experiment: two-hybrid library CCmax; conditions: mean of both orientations
T11 chain: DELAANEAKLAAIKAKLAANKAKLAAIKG

APC4264-AA = molecular target: T12, APC4264-AA; experiment: two-hybrid library CCmax; conditions: mean of both orientations
T12 chain: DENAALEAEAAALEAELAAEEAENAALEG

APC4011-AA = molecular target: T13, APC4011-AA; experiment: two-hybrid library CCmax; conditions: mean of both orientations
T13 chain: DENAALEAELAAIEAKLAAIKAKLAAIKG

APC7099-AA = molecular target: T14, APC7099-AA; experiment: two-hybrid library CCmax; conditions: mean of both orientations
T14 chain: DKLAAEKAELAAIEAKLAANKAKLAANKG

APC2237-AA = molecular target: T15, APC2237-AA; experiment: two-hybrid library CCmax; conditions: mean of both orientations
T15 chain: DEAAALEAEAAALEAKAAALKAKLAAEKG

4H716-AA = molecular target: T16, 4H716-AA; experiment: two-hybrid library CCmax
T16 chain: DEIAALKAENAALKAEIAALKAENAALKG

APC232-AA = molecular target: T17, APC232-AA; experiment: two-hybrid library CCmax; conditions: mean of both orientations
T17 chain: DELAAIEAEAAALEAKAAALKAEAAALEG

APC6108-AA = molecular target: T18, APC6108-AA; experiment: two-hybrid library CCmax; conditions: mean of both orientations
T18 chain: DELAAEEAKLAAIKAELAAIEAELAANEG

APC9096-AA = molecular target: T19, APC9096-AA; experiment: two-hybrid library CCmax; conditions: mean of both orientations
T19 chain: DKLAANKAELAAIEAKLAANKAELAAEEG

APC1434-AA = molecular target: T20, APC1434-AA; experiment: two-hybrid library CCmax; conditions: mean of both orientations
T20 chain: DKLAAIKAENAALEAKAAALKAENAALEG

APC3645-AA = molecular target: T21, APC3645-AA; experiment: two-hybrid library CCmax; conditions: mean of both orientations
T21 chain: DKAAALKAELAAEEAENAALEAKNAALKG

APC9319-AA = molecular target: T22, APC9319-AA; experiment: two-hybrid library CCmax; conditions: mean of both orientations
T22 chain: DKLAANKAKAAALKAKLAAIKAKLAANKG

4H807-AA = molecular target: T23, 4H807-AA; experiment: two-hybrid library CCmax; conditions: mean of both orientations
T23 chain: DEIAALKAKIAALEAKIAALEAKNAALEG

4H733-AA = molecular target: T24, 4H733-AA; experiment: two-hybrid library CCmax; conditions: mean of both orientations
T24 chain: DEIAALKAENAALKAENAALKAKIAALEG

APC1015-AA = molecular target: T25, APC1015-AA; experiment: two-hybrid library CCmax; conditions: mean of both orientations
T25 chain: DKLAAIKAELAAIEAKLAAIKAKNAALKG

B1: P4A-bS (peptide)
chain: DKISQLKQKISELKQENSELEWENSQLEQ
Question: Which results are given for B1?
Answer: interaction score (P6A-bS): -1.51; interaction score (P9A-bS): -2; interaction score (P4A-bS): -1.08; interaction score (P8A-bS): -0.866; interaction score (P5A-bS): -0.436; interaction score (P7A-bS): -0.905

B2: 4H716-AA (peptide)
chain: DEIAALKAENAALKAEIAALKAENAALKG
Question: For B2, which interaction score (APC4436-AA) is on record?
Answer: -1.65

Question: And the interaction score (APC8910-AA)?
Answer: -1.89

Question: What about the interaction score (APC5383-AA) of the same binder?
Answer: -1.79

Question: What about the interaction score (APC2405-AA) of the same binder?
Answer: -1

Question: What about the interaction score (APC8191-AA) of the same binder?
Answer: -1.36

Question: What about the interaction score (APC4264-AA) of the same binder?
Answer: -1.35

Question: What about the interaction score (APC4011-AA) of the same binder?
Answer: -1.44

Question: What about the interaction score (APC7099-AA) of the same binder?
Answer: -1.6

Question: And the interaction score (APC2237-AA)?
Answer: -1.74

Question: And the interaction score (4H716-AA)?
Answer: 1.49

Question: What about the interaction score (APC232-AA) of the same binder?
Answer: -1.48

Question: And the interaction score (APC6108-AA)?
Answer: -1.47

Question: What about the interaction score (APC9096-AA) of the same binder?
Answer: -1.43

Question: And the interaction score (APC1434-AA)?
Answer: -1.53

Question: And the interaction score (APC3645-AA)?
Answer: -1.45

Question: What about the interaction score (APC9319-AA) of the same binder?
Answer: -1.79

Question: And the interaction score (4H807-AA)?
Answer: -1.6

Question: What about the interaction score (4H733-AA) of the same binder?
Answer: -1.28

Question: What about the interaction score (APC1015-AA) of the same binder?
Answer: -1.65
